The record followed here is patent US8084213, “Selection” (Domantis Limited).

Data set [1] addresses Vk(E5)-scArc-HA (Phage P22 / human Vk). The data set can be described thus: co-capture PCR; recovered also on beta-galactosidase. The settings on record: tags: N-terminal Vk(E5) dAb fusion, C-terminal HA; chain copies: 2 scArc per operator (stated). The protocol: The monoclonal high-affinity α-HA mAb 3F10 recognises the C-terminal HA tag, β-galactosidase and protein L can be expected to interact with the $V_\kappa$(E5) light chain domain, while BSA serves as the negative control. At the end of the incubation the coating solution is removed and the first blocking solution consisting of 150 µl of 10 ng/ml biotinylated BSA (Sigma) in PBS is added to the wells and incubated for 15 minutes. At the end of the incubation the wells are washed three times with 150 µl of PBS and blocked additionally for 30 min at room temperature with buffer C+.
25 µl S30 in vitro translation reactions (EcoPro T7, Novagen) are assembled according to the manufacturer's instructions and supplemented with 1.5 µl of 1.7 mM PCR-amplified template in 0.1 mg/ml RNA and 0.75 µl of 100 mM oxidized glutathione. Translation reactions are incubated at 23° C. for 4 hours and diluted with 150 µl of buffer C+ (10 mM Tris, 100 mM KCl, 0.05% Tween 20, 5 mM MgCl_2, 0.1 mM EDTA, 1% w/v BSA) before being applied in 50 µl aliquots to the pre-coated tubes cut from Strep Thermofast 96-well plates (Advanced Biotech) and allowed to bind for 30 min at room temperature. […]
The PCR amplification products are analysed by 1% agarose gel electrophoresis in TAE in the presence of ethidium bromide and imaged using GeneGeius Bio Imaging System (Syngene). […]

In data set [2] the target is scFv(31IJ1)-(KEAAA)6-scArc-HA (Phage P22 / human scFv?). The data set can be described thus: co-capture on protein A, protein L, fluorescein; with anti-HA 3F10. The following applies: tags: N-terminal scFv fusion, C-terminal HA; chain copies: 2 scArc per operator (inferred). How it is done:
In the solution expression experiments 3 µl of 1.7 nM PCR-amplified pIE7aA, pIE7a2A, pIE7a3A, pIE7a4A, pIE7aA-scFv(31IJ1), pIE7a2A-scFv(31 Ul), pIE7a3A-scFv (31IJ1) or pIE7a4A-scFv(31IJ1) template in 0.2 mg/ml tRNA is added to 25 µl EcoPro T7 in vitro translation mix (Novagen), supplemented with 0.75 µl of 100 mM oxidized glutathione (Sigma) and 0.25 µl […] 3F10 αHA mAb (Roche). Each reactions is split into three 9 µl aliquots. Two of the three in vitro translation aliquots of pIE7aA-scFv(31IJ1), pIE7a2A-scFv(31IJ1), pIE7a3A-scFv(31IJ1) or pIE-7a4A-scFv(31IJ1) are immediately combined with the aliquots of pIE7aA, pIE7a2A, pIE7a3A or pIE7a4A expression reactions respectively, one before and the other after the four-hour incubation at 25° C.
During the translation reaction the streptavidin-coated PCR tubes, cut from Strep Thermofast 96-well plates (Abgene), are first incubated at room temperature for three hours with 50 µl of at least 40 nM biotinylated protein A (Sigma), protein L (Pierce) fluorescein (Molecular Probes) of BSA (Sigma) in PBS. The coating buffer is thereafter removed and any remaining free biotin-binding sites are blocked with a 15 min pulse of 50 µg/ml biotinylated BSA in PBS. The pre-coated wells are thereafter three times washed with PBS and then filled with 100 µl of binding buffer C+ (100 mM KCl, 20 mM Tris, 5 mM MgCl2, 0.05% Tween 20, 0.05 mM EDTA, 1% BSA). […]

B1: Arc operator, one copy, on linear genetic element (dsDNA)
DNA 1: ATGATAGAAGCACTCTACTAT
DNA 2: ATAGTAGAGTGCTTCTATCAT
Regarding B1, the binding result in data set [1] and in data set [2] was “binds” in each case.
